Measured values as given in patent publication US9688764B2, “Methods of treating breast cancer by administering anti-human prolactin receptor (PRLR) antibodies” (REGENERON PHARMACEUTICALS, INC., priority 2013, dated 2017).

T1: PRLR-expressing cells (T47D) (Homo sapiens, UniProt P16471)
T1 construct: a native PRLR expressing cell line (T47D); endogenous in cells; host or cells: T47D
T1 sequence (P16471 25-622): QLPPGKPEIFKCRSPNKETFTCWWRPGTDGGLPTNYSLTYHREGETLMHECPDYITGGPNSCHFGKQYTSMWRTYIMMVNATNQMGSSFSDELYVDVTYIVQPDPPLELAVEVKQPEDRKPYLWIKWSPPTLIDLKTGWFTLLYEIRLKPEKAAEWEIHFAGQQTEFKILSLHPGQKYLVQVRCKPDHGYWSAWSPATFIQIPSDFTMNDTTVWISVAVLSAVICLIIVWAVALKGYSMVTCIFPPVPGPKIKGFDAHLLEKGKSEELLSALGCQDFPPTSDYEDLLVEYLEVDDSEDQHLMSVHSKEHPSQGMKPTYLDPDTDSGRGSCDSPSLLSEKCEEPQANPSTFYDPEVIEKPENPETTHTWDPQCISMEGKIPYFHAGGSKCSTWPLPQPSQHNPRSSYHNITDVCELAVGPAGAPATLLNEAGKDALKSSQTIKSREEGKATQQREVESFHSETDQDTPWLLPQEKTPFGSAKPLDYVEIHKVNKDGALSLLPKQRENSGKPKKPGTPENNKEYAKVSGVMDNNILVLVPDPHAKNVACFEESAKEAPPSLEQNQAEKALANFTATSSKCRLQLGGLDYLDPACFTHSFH


Assays:
[1] = biological target: T1, PRLR-expressing cells (T47D); assay: Antibody binding and internalization by PRLR-expressing cells (imaging); type: cell-based; settings: [mAb] (0.67 nM); for % Internalization relative to Control I: alexa488 intensity in intracellular vesicles, 1 h at 37° C.; for % Total Binding relative to Control I: whole cell alexa488 intensity at 37° C.
Experimental: In this Example, the internalization of anti-PRLR antibodies by PRLR-expressing cells (T47D) was assessed. Briefly, 20,000 T47D cells were seeded in collagen coated 96 well plates. […] Cells were then incubated with alexa488 conjugated anti-hFc Fab secondary antibodies for 30 minutes on ice followed by two additional PBS washes. Antibodies were allowed to internalize for 1 h at 37° C. in internalization buffer (PBS+2% FBS) or remained at 4° C. Cells were fixed in 4% formaldehyde, nuclei were stained with DRAQ5 (Cell signaling), and images were acquired on the ImageXpress micro XL (Molecular Devices). Whole cell alexa488 intensity at 37° C. (Binding) and the alexa488 intensity in the intracellular vesicles at 37° C. (Internalization) were determined via Columbus image analysis software (PerkinElmer).

[2] = biological target: mfPRLR.mmh (monomeric macaca fascicularis PRLR); assay: Surface plasmon resonance (Biacore T200), mAb-capture format; type: binding; settings: antibody-capture format, analyte mfPRLR.mmh
Sequence of mfPRLR.mmh (monomeric macaca fascicularis PRLR) (as listed by the source): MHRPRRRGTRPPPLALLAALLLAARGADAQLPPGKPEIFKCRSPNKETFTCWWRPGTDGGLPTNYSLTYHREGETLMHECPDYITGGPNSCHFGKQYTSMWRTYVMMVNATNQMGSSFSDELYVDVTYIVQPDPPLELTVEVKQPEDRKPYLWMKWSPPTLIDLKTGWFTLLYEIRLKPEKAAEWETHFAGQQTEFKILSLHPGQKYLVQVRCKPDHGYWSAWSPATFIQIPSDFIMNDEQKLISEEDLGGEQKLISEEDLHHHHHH
Experimental: (§1) Antibodies, expressed as human IgG1 Fc “[…]” designations), were captured onto an anti-human Fc sensor surface (mAb-capture format), and soluble monomeric (hPRLR.mmh; SEQ ID NO:401, or macaca fascicularis (mf) PRLR.mmh; SEQ ID NO:403) or dimeric (hPRLR.mFc; SEQ ID NO:402) PRLR protein was injected over the sensor surface. Measurements were conducted on a T200 Biacore instrument. Kinetic association (ka) and dissociation (kd) rate constants were determined by processing and fitting the data to a 1:1 binding model using Scrubber 2.0 curve fitting software.

[3] = biological target: T2, hPRLR.mmh (soluble monomeric human PRLR) (Homo sapiens, UniProt P16471); assay: as above; type: binding; settings: antibody-capture format, analyte hPRLR.mmh
T2 construct: soluble monomeric (hPRLR.mmh); mmh (myc-myc-hexahistidine)
T2 sequence (P16471 with tags, fused parts or gaps): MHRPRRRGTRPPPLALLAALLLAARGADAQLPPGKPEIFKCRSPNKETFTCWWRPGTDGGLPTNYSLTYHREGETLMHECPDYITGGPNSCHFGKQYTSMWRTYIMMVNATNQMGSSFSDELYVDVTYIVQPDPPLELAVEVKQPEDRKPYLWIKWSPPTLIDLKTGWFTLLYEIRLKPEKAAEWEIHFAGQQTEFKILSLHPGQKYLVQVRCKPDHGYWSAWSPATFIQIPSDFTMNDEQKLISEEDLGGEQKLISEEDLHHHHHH
Experimental: as §1

[4] = biological target: T3, hPRLR.mFc (soluble dimeric human PRLR) (Homo sapiens, UniProt P16471); assay: as above; type: binding; settings: antibody-capture format, analyte hPRLR.mFc
T3 construct: dimeric (hPRLR.mFc)
T3 sequence (P16471 with tags, fused parts or gaps): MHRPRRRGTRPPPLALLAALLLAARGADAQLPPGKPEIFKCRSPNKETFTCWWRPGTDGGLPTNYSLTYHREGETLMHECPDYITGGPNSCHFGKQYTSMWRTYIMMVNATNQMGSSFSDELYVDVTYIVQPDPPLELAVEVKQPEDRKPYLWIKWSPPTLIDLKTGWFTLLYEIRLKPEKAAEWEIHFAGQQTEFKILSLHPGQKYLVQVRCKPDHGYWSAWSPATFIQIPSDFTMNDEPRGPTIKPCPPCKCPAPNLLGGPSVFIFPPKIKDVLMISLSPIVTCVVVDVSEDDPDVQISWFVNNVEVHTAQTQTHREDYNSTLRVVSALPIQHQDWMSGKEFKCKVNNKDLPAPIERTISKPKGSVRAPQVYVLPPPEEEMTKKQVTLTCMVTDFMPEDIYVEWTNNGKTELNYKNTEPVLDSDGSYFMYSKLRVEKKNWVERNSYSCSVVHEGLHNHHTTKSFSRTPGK
Experimental: as §1

[5] = tested on: HEK293/mfPRLR; assay: FACS cell surface binding; parameters: species or system macaca fascicularis
Sequence of HEK293/mfPRLR (as listed by the source): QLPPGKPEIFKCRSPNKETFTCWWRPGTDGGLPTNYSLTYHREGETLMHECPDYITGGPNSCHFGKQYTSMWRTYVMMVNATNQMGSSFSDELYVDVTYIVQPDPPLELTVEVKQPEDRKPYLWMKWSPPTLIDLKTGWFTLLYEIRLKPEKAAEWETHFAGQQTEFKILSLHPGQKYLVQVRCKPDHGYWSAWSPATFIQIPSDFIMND
Experimental: The ability of anti-PRLR antibodies to selectively bind PRLR expressing cell lines was next determined. Human, monkey macaca fascicularis, and mouse PRLR constructs with an HA tag were stably introduced into HEK293 cells via Lipofectamine 2000-mediated transfection methodology. Transfectants (HEK293/hPRLR, HEK293/mfPRLR and HEK293/mPRLR) were selected for at least 2 weeks in complete growth media plus G418.
Cell surface expression of PRLR on 293/hPRLR cells was assessed via FACS analysis. Briefly, 1×10^5 cells were incubated with 10 μg/ml of Control antibody I, or an isotype control for 30 min on ice in antibody dilution buffer. Following two washes with antibody dilution buffer, cells were incubated with 10 μg/ml of PE conjugated anti-human secondary antibodies for 30 min on ice. Following two additional washes, samples were run on a Hypercyt® cytometer and analyzed in FORECYT™ (IntelliCyt, Albuquerque, N. Mex.). The mean fluorescence intensities (MFI) were expressed as fold change above isotype control levels (background). FACS binding confirmed that Control I selectively bound to 293/hPRLR expressing cells with MFIs that were 30 fold above background (isotype ctrl) levels and less than 2 fold binding on parental cells.
Next, the anti-PRLR antibodies of the present invention were tested via FACS for selective binding to the engineered overexpressing PRLR HEK293 cell lines, as well as to non-expressing HEK293 cells and a native PRLR expressing cell line (T47D).

Molecule | % Internalization relative to Control I [1] | % Total Binding relative to Control I [1] | Kd ([2]; 25° C.) | T½ ([2]; 25° C.) | Kd ([2]; 37° C.) | T½ ([2]; 37° C.) | Kd ([3]; 25° C.) | T½ ([3]; 25° C.) | Kd ([3]; 37° C.) | T½ ([3]; 37° C.) | Kd ([4]; 25° C.) | T½ ([4]; 25° C.) | Kd ([4]; 37° C.) | T½ ([4]; 37° C.) | FACS Cell Binding (Fold Above Background) [5]
H1H6765P: anti-PRLR antibody, human IgG1 Fc; HCVR/LCVR SEQ ID NOs 18/26 (antibody, V domains shown, human IgG1 Fc) VH: EVQLVESGGGVVRPGGSLRLSCVGSGFSFDDHGMNWVRQGPGKGLEWVSGFNWNGGSTNYAESVKGRFTISRDNARNSLFLQMNSLRAEDTALYYCVRGRSGWFNDAFDVWGPGTMVTVSS VL: EIVLTQSPGTLSLSPGERATLSCRASQTINSNYLAWYRQKPGQTPRLLIYGTSSRATGIPDRFSGSGSGTDFSLTISRLEPEDFAVFYCQQYAGLPTFGPGTKVDIK | 186.3% | 191.3% | 0.254 nM | 86 min | 0.0504 nM | 215 min | 0.124 nM | 102 min | 0.292 nM | 32 min | 0.0392 nM | 339 min | 0.128 nM | 112 min | 27 Fold Above Background
H1H6774P: anti-PRLR antibody, human IgG1 Fc; HCVR/LCVR SEQ ID NOs 34/42 (antibody, V domains shown, human IgG1 Fc) VH: EVQLVESGGGLAQPGGSLRLSCVASGFTFSTYWMSWVRQAPGKGLDWVGNIKQDGSEQNYVDSVRGRFTISRDNAKNSLFLQMNSLRAEDTGVYYCATLLTKGDYWGQGTLVTVSS VL: DIQMTQSPSSLSASVGDSVTITCRASQDISNYLDWFQQKPGKAPKSLIYAASILQGGVPSRFSGSGYGTDFTLTISSLQPEDFATYYCRQYKTYPFTFGPGTKVDIK | 162.3% | 173.7% | 1.77 nM | 13 min | 5 nM | 3 min | 1.14 nM | 14 min | 2.95 nM | 4 min | 0.112 nM | 129 min | 0.138 nM | 60 min | 29 Fold Above Background
H1H6781P: anti-PRLR antibody, human IgG1 Fc; HCVR/LCVR SEQ ID NOs 50/58 (antibody, V domains shown, human IgG1 Fc) VH: EVQLVESGGDLVQPGESLRLSCTASGFTFNSYEMNWVRQAPGKGLEWVSYISSSGGTKYYVDSVKGRFTISRDNAKKSLYLQMNSLRADDTALYYCARLNGVDVFDIWGQGTMVTVSS VL: DIQMTQSPSSLSASVGDRVTITCRASQDIFNYLAWFQQKPGKVPELLISAASTLQSGVPSRFSGSGSGTYFTLTISSLQPEDIATYYCQRYNSAPLTFGGGTKVEIK | 165.1% | 166.2% | 0.986 nM | 82 min | 1.08 nM | 43 min | 0.61 nM | 91 min | 0.91 nM | 37 min | 0.236 nM | 191 min | 0.226 nM | 117 min | 26 Fold Above Background
H1H6976N: human IgG1 Fc form of H2M6976N; anti-PRLR; HCVR/LCVR SEQ ID NOs 386/394 (antibody, V domains shown, human IgG1 Fc) VH: EVQLLESGGGFVQPGGSLRLSCAASGFTFSSYAMSWVRQAPGKGLEWVSIISSNGRYTYYADSVKGRFTISRDNSKNTLYLQMNSLRAEDTAVYYCATVTGDWFDPWGQGTLVTVSS VL: DIQLTQSPSFLSASVGDRVTITCWASQDIDISLAWYQQKPGKAPKLLIYAASTLQSGVPSKFSGSGSGTDFTLTISSLQPEDFSTYYCQQLNSYPITFGQGTRLDIK | 169.5% | 180.4% | 1.75 nM | 14.2 min | 5.24 nM | 3.7 min | 1.59 nM | 13.4 min | 4.04 nM | 3.7 min | 0.0906 nM | 114.4 min | 0.102 nM | 82.6 min | 29 Fold Above Background
H1H6782P: anti-PRLR antibody, human IgG1 Fc; HCVR/LCVR SEQ ID NOs 66/74; non-blocking (antibody, V domains shown, human IgG1 Fc) VH: EVQLVESGGGLVQPGRSLRLSCAASGFTFDDYAMHWVRQAPGKGLEWVSGIIWNSGHIGYGDSVKGRFTISRDNAKKSLYLQMNSLRAEDTALYYCARDSGRYQSYFDYWGQGTLVTVSS VL: DIQMTQSPSTLSASVGDRVTITCRASHIISSWLAWYQQKPGKAPKVLIFKASSLESGVPSRFSGSGSGTEFTLTISSLQPDDFATYYCQQYNTYSRTFGQGTKVEIK | 179.3% | 209.9% | 1.05 nM | 41 min | 1.99 nM | 15 min | 0.685 nM | 47 min | 1.28 nM | 16 min | 0.225 nM | 162 min | 0.217 nM | 89 min | 32 Fold Above Background
H1H6762P: anti-PRLR antibody, human IgG1 Fc; HCVR/LCVR SEQ ID NOs 2/10 (antibody, V domains shown, human IgG1 Fc) VH: QVQLVESGGGVVQPGRSLRLSCAASGFTFSHYGMVWVRQPPGKGLEWVALISFDGTTKYYADSVKGRFTISRDNSKNTLYLQMNSLRAEDTAVYFCVGAIAAAAFDLWGRGTLVTVSS VL: EIVMTQSPATLSVSPGERATLSCRASQSVSSDLAWYQQKPGQAPRLLIYSASARATGIPARFTGSGSGTDFTLTISSLQSEDFAVYYCQQYNNWPMYTFGQGTKLEIK | 186.3% | 176.7% | 0.511 nM | 55 min | 0.823 nM | 21 min | 0.259 nM | 64 min | 0.48 nM | 25 min | 0.0992 nM | 179 min | 0.128 nM | 112 min | 26 Fold Above Background
